One test concerns the target T1, FcRεI (Mus musculus, UniProt P20489).
T1 construct: endogenous in cells; host or cells: mouse peritoneal mast cells
T1 sequence (P20489 24-250): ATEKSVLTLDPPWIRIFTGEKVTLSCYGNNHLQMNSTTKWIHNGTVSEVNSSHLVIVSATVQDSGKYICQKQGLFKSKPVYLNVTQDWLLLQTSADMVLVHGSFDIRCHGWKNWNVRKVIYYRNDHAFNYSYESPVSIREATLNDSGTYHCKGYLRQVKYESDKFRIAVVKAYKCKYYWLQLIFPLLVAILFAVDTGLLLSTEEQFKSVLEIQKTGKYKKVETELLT
T1 sequence (P20490 1-235 partner): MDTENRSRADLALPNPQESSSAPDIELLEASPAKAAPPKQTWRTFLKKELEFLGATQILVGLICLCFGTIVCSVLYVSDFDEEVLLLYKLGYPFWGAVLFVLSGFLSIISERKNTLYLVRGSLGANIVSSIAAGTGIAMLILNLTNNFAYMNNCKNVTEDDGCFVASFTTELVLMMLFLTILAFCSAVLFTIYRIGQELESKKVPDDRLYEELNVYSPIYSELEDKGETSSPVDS
T1 sequence (P20491 19-86 partner): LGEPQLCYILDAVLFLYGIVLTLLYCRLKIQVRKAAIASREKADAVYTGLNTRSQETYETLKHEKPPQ
As to the kind of experiment: IgE binding to FcRεI on peritoneal mast cells (specificity control). As to conditions: 1000 nM chemerin.

Test [1] deals with mouse peritoneal mast cells. Briefly: intracellular calcium mobilization, freshly isolated peritoneal mast cells. It counts as cell-based. The conditions noted are these: 1000 nM chemerin, 100 nM ATP. On the procedure: Chemoattractant-stimulated Ca^2+-mobilization was performed following Alliance for Cell Signaling protocol ID PP00000210. Cells (3×10^6/mL) were loaded with 4 μM Fluo4-AM and 0.16% Pluronic acid F-127 (Molecular Probes) in modified Iscove's medium (Iscove's medium with 1% heat inactivated bovine calf serum and 2 mM L-glutamine, Invitrogen) for 30 minutes at 37° C. The samples were mixed every 10 minutes during loading, washed once, resuspended at up to 2×10^6/mL in the same buffer, and allowed to rest in the dark for 30 minutes at room temperature. Chemoattractant-stimulated change in Ca^2+-sensitive fluorescence of Fluo-4 was measured over real-time with a FACsScan flow cytometer and CellQuest software (BD Biosciences) at room temperature under constant stirring (500 rpm). Fluorescent data were acquired continuously up to 1024 seconds at 1-second intervals. The samples were analyzed for 45 seconds to establish basal state, removed from the nozzle to add the stimuli, and then returned to the nozzle. Mean channel fluorescence over time was analyzed with FlowJo (TreeStar, Ashland, Oreg., USA) software. […] 500 μl of these chemerin-loaded cells were added to mCMKLR1/L1.2 cells loaded with Fluo4-AM, and calcium mobilization was evaluated.
In general terms: Calcium flux is commonly read through the fluorescence of an indicator in the cells.

For another test, the target named is T2, mCCRL2 (Mus musculus, UniProt O35457).
T2 construct: The coding regions of mCCRL2, huCCRL2, mCRTH2, and huCCR10 were amplified from genomic DNA; expressed in transfected cells
T2 sequence (O35457 1-360): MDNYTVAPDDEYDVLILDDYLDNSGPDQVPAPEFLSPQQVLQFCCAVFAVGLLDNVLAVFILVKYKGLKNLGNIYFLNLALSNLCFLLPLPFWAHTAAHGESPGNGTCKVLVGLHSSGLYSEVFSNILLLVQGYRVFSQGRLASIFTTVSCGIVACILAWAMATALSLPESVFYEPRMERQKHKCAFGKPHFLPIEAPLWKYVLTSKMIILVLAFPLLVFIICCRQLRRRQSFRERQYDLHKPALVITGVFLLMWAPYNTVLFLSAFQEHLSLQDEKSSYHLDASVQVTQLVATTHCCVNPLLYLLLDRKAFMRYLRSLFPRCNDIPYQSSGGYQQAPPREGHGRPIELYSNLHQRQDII
As to the kind of experiment: receptor internalization assay, mCCRL2-HA L1.2. It counts as cell-based. The conditions noted are these: 100 nM chemerin, 15 min. The protocol:
The cells were then washed with 200 μl PBS and stained with mouse anti-HA (Covance, Inc) or mIgG1 isotype control, followed by staining with secondary anti-mouse IgG1 PE, fixed, and analyzed by flow cytometry.

A further test deals with T3, CCRL2 (Mus musculus, UniProt O35457).
T3 construct: TNFα-treated bEND3 cells acquire CCRL2 surface protein (but not CMKLR1 expression); endogenous in cells; host or cells: bEND3 mouse brain endothelioma cells treated 24 h with 20 ng/ml TNFα
T3 sequence (O35457 1-360): T2 sequence (O35457 1-360)
Briefly: radiolabeled chemerin binding to TNFα-treated bEND3 cells. As to conditions: cells treated 24 hours with 20 ng/ml TNFα. The text has this: FIG. 22. […] Panel A. Robust upregulation of CCRL2 RNA by microarray analysis (Affymetrix®). Panel B. TNFα-treated bEND3 cells acquire CCRL2 surface protein (but not CMKLR1 expression) as determined by mAb staining and flow cytometry. Panel C. […] CCRL2/L1.2 and empty vector pcDNA3/L1.2 transfectants are shown as controls. The mean+/−SD of triplicate wells is shown for an individual experiment. A representative data set of 2 performed with similar results is shown for parts B and C, and n=1 for part A.
The cells were washed in PBS and stained with secondary anti-rat IgG PE or anti-mouse IgE PE (+goat IgG) for 30 min on ice, washed with PBS, stained with directly conjugated F4/80 and c-kit mAbs, and analyzed by flow cytometry. […] For competition binding assays, L1.2 cells transfected with huCCRL2, mCCRL2, or mCMKLR1 were plated into 96-well plates at 0.5×10^6 cells/well. […]. For saturation binding assays, mCCRL2/L1.2 cells were plated at 0.5×10^6 cells/well. […] Binding was terminated by washing the cells in saline buffer, and bound radioactivity was measured. Data were analyzed using Prism (GraphPad Software). Binding data (triplicate or quadruplicate wells) were fitted to one-site binding hyperbola for saturation assays, or to a one-site competition curve for competition assays. […] […].

Test [2] relates to mouse peritoneal mast cells. Briefly: immunofluorescence chemerin binding to peritoneal mast cells (WT or CCRL2 KO).
Another test concerns the target T4, mCRTH2 (Mus musculus, UniProt Q9Z2J6).
T4 construct: The coding regions of mCCRL2, huCCRL2, mCRTH2, and huCCR10 were amplified from genomic DNA; expressed in transfected cells
T4 sequence (Q9Z2J6 1-382): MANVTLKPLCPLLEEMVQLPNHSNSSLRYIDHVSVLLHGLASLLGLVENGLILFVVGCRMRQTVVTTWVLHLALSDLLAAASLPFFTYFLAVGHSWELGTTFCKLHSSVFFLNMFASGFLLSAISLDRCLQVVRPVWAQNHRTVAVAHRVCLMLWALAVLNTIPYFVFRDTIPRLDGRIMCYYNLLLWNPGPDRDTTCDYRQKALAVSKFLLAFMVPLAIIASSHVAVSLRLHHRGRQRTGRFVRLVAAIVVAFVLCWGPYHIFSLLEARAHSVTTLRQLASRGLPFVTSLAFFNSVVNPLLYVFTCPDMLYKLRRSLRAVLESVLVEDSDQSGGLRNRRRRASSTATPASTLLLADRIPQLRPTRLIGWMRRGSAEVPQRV
As to the kind of experiment: immunofluorescence-based chemerin-binding assay, mCRTH2-HA L1.2. As to conditions: 10 nM His8-tagged chemerin, anti-His6 PE.

Regarding “chemerin: protein ligand for signaling receptor CMKLR1; serum form human chemerin expressed in baculovirus-infected insect cells, His8-tag removed”, the “binding of IgE to FcRεI” value with FcRεI is on record as “unaffected”. Further, the intracellular calcium mobilization result in test [1] is on record as “did not trigger”. Further, in the test with mCCRL2, the ligand-induced receptor internalization result was “failed to internalize”. Besides, the “chemerin binding to TNFα-treated bEND3 cells” value with CCRL2 is listed as “bind”. The “binding to freshly isolated peritoneal mast cells” value in test [2] (WT mice) is given as “bound”. Further, in test [2] (WT peritoneal mast cells), the “preference for binding of the pro-form vs. the active serum form” value is listed as “no obvious preference”. The “binding to peritoneal mast cells” value in test [2] (mCCRL2 KO mice) is reported as “did not bind”. For the same substance, the chemerin binding result with mCRTH2 is reported as “did not bind”.
